Measured values taken from PMC9482650, “Quantitative fragmentomics allow affinity mapping of interactomes” (Nature Communications, 2022).

Assays:
Assay in all cases: holdup assay
Set-up in all cases: key: below the threshold = too weak to quantify, mostly under pKd 3.1 to 4
[1] = biological target: T1, SNTA1, Q13424
T1 sequence (Q13424 82-180, limits assumed, looked up): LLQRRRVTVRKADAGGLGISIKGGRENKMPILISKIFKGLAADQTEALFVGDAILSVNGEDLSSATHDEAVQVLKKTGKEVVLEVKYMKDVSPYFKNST

[2] = biological target: T2, DFNB31_3, Q9P202
T2 sequence (Q9P202 811-907, limits assumed, looked up): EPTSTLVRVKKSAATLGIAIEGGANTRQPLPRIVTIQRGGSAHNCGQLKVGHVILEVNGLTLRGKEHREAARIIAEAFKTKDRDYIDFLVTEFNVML

[3] = biological target: T3, NHERF3_4, Q5T2W1
T3 sequence (Q5T2W1 373-468, limits assumed, looked up): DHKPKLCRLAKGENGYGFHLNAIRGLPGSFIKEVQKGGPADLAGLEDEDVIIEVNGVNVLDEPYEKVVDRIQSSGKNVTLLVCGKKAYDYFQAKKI

[4] = biological target: T4, MPP6, Q9NZW5
T4 sequence (Q9NZW5 125-219, limits assumed, looked up): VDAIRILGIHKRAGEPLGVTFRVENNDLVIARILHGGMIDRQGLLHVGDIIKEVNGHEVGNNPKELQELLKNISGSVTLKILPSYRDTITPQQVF

[5] = biological target: T5, SIPA1L2, Q9P2F8
T5 sequence (Q9P2F8 945-1036, limits assumed, looked up): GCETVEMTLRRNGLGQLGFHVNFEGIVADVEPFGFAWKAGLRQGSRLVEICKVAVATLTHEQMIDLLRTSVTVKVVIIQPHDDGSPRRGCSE

[6] = biological target: FRMPD2_3, Q68DX3
Sequence of FRMPD2_3, Q68DX3 (Q68DX3 1073-1166): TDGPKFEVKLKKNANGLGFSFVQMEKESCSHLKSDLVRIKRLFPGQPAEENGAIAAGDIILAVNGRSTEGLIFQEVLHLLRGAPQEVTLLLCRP

[7] = biological target: T6, LIN7A, O14910
T6 sequence (O14910 103-200, limits assumed, looked up): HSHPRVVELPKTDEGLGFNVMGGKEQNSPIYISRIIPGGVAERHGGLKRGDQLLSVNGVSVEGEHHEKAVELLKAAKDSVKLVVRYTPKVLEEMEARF

[8] = biological target: T7, PDZD2_2, O15018
T7 sequence (O15018 329-429, limits assumed, looked up): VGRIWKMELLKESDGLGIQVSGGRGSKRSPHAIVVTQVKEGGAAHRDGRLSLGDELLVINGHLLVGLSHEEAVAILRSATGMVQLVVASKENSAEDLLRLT

[9] = biological target: T8, PCLO, Q9Y6V0
T8 sequence (Q9Y6V0 4491-4600, limits assumed, looked up): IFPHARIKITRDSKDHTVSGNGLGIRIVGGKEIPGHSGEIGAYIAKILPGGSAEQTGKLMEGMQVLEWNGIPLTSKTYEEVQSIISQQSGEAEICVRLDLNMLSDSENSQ

[10] = biological target: GRIP2_5, Q9C0E4
Sequence of GRIP2_5, Q9C0E4 (Q9C0E4 544-642): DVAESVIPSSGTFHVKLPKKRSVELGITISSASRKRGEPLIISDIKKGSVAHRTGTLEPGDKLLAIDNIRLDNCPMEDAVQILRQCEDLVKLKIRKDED

[11] = biological target: MAGI2_2, Q86UL8
Sequence of MAGI2_2, Q86UL8 (Q86UL8 410-522): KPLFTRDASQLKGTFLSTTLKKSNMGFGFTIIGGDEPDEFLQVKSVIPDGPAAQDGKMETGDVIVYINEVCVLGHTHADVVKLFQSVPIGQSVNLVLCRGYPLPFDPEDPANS

[12] = biological target: MAST1, Q9Y2H9
Sequence of MAST1, Q9Y2H9 (Q9Y2H9 962-1065): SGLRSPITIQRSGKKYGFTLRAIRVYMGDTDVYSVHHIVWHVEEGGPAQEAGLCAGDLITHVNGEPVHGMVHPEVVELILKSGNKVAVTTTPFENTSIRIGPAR

[13] = biological target: T9, NHERF3_1, Q5T2W1
T9 sequence (Q5T2W1 4-100, limits assumed, looked up): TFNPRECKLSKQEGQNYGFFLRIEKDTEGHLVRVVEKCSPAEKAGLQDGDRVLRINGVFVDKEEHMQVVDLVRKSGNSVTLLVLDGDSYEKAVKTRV

[14] = biological target: DLG1_1, Q12959
[15] = biological target: GRIP2_6, Q9C0E4
Sequence of GRIP2_6, Q9C0E4 (Q9C0E4 648-740): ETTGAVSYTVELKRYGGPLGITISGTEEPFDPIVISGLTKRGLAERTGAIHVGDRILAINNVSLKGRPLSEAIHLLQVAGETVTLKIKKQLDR

[16] = biological target: DLG1_2, Q12959
[17] = biological target: T10, MPDZ_5, O75970
T10 sequence (O75970 695-796, limits assumed, looked up): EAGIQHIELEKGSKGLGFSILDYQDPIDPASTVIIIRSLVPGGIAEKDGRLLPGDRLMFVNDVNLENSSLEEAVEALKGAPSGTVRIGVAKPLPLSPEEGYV

[18] = biological target: NHERF2_2, Q15599
Sequence of NHERF2_2, Q15599 (Q15599 142-238): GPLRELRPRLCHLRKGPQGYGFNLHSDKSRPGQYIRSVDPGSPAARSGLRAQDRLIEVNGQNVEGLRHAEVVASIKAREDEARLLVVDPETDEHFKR

[19] = biological target: GIPC2, Q8TF65
Sequence of GIPC2, Q8TF65 (Q8TF65 112-203): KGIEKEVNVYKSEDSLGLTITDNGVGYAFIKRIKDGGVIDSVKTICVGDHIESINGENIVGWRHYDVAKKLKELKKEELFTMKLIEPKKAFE

[20] = biological target: GRASP, Q7Z6J2
Sequence of GRASP, Q7Z6J2 (Q7Z6J2 96-193): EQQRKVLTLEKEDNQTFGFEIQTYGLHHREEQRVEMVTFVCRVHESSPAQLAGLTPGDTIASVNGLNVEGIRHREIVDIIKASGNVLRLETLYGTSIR

[21] = biological target: IL16_3, Q14005
Sequence of IL16_3, Q14005 (Q14005 1107-1207): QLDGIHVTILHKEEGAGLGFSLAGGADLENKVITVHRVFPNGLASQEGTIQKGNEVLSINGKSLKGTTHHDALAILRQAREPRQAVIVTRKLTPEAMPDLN

[22] = biological target: DLG2_3, Q15700
[23] = biological target: GRID2IP_2, A4D2P6
Sequence of GRID2IP_2, A4D2P6 (A4D2P6 272-370): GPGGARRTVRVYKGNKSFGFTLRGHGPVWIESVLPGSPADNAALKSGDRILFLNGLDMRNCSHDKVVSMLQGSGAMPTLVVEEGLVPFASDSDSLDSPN

[24] = biological target: FRMPD2_2, Q68DX3
Sequence of FRMPD2_2, Q68DX3 (Q68DX3 944-1038): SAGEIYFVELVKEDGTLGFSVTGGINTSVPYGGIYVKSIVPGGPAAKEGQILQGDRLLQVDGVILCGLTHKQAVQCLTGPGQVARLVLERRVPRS

[25] = biological target: T11, CARD11, Q9BXL7
T11 sequence (Q9BXL7 662-765, limits assumed, looked up): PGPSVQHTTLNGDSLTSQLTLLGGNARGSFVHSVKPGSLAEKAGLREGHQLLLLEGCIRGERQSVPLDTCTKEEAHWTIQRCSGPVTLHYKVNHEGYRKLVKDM

[26] = biological target: T12, DFNB31_2, Q9P202
T12 sequence (Q9P202 274-371, limits assumed, looked up): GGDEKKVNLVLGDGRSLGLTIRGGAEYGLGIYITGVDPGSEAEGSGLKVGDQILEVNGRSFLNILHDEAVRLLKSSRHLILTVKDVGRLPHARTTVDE

[27] = plain residues with an end cap or a label only (N-terminal biotin on a linker: ado-ado)
[28] = modified: phospho on T at position -2 from the C-terminal residue

Binder: RRRESYSTTV [EVI5, O60447]
- pKd [1, 27]: 4.41
- pKd [2, 27]: below the threshold
- pKd [3, 27]: below the threshold
- pKd [4, 27]: below the threshold
- pKd [5, 27]: 3.47
- pKd [6, 27]: below the threshold
- pKd [7, 27]: below the threshold
- pKd [8, 27]: 4.7
- pKd [9, 27]: below the threshold
- pKd [10, 27]: below the threshold
- pKd [11, 27]: 5.15
- pKd [12, 27]: 4.82
- pKd [13, 27]: 4.31
- pKd [14, 27]: 5.66
- pKd [15, 27]: 4.61
- pKd [16, 27]: 5.57
- pKd [17, 27]: below the threshold
- pKd [18, 27]: 4.21
- pKd [19, 27]: below the threshold
- pKd [20, 27]: 4.55
- pKd [21, 27]: below the threshold
- pKd [22, 27]: 4.52
- pKd [23, 27]: 4.34
- pKd [24, 27]: 3.74
- pKd [25, 27]: below the threshold
- pKd [26, 27]: below the threshold

Binder: LRSPRTPSEV [OR10G3, Q8NGC4]
- pKd [1, 27]: 3.52
- pKd [2, 27]: 3.79
- pKd [3, 27]: below the threshold
- pKd [4, 27]: below the threshold
- pKd [5, 27]: below the threshold
- pKd [6, 27]: below the threshold
- pKd [7, 27]: below the threshold
- pKd [8, 27]: 3.95
- pKd [9, 27]: below the threshold
- pKd [10, 27]: below the threshold
- pKd [11, 27]: 4.27
- pKd [12, 27]: below the threshold
- pKd [13, 27]: below the threshold
- pKd [14, 27]: below the threshold
- pKd [15, 27]: below the threshold
- pKd [16, 27]: 4.1
- pKd [17, 27]: 3.82
- pKd [18, 27]: below the threshold
- pKd [19, 27]: below the threshold
- pKd [20, 27]: below the threshold
- pKd [21, 27]: below the threshold
- pKd [22, 27]: below the threshold
- pKd [23, 27]: below the threshold
- pKd [24, 27]: below the threshold
- pKd [25, 27]: below the threshold
- pKd [26, 27]: below the threshold

Binder: RRLPGKETMA [GRIK2, Q13002]
- pKd [1, 27]: below the threshold
- pKd [2, 27]: below the threshold
- pKd [3, 27]: below the threshold
- pKd [4, 27]: below the threshold
- pKd [5, 27]: below the threshold
- pKd [6, 27]: below the threshold
- pKd [7, 27]: below the threshold
- pKd [8, 27]: below the threshold
- pKd [9, 27]: below the threshold
- pKd [10, 27]: below the threshold
- pKd [11, 27]: below the threshold
- pKd [12, 27]: below the threshold
- pKd [13, 27]: below the threshold
- pKd [14, 27]: below the threshold
- pKd [15, 27]: below the threshold
- pKd [16, 27]: 3.66
- pKd [17, 27]: below the threshold
- pKd [18, 27]: below the threshold
- pKd [19, 27]: below the threshold
- pKd [20, 27]: below the threshold
- pKd [21, 27]: below the threshold
- pKd [22, 27]: 3.8
- pKd [23, 27]: below the threshold
- pKd [24, 27]: below the threshold
- pKd [25, 27]: below the threshold
- pKd [26, 27]: below the threshold

Binder: SKPTRRETEV [HPV35-E6_-2P, P27228]
- pKd [1, 28]: below the threshold
- pKd [2, 28]: 3.95
- pKd [3, 28]: below the threshold
- pKd [4, 28]: 3.78
- pKd [5, 28]: below the threshold
- pKd [6, 28]: below the threshold
- pKd [7, 28]: below the threshold
- pKd [8, 28]: below the threshold
- pKd [9, 28]: below the threshold
- pKd [10, 28]: below the threshold
- pKd [11, 28]: below the threshold
- pKd [12, 28]: below the threshold
- pKd [13, 28]: below the threshold
- pKd [14, 28]: below the threshold
- pKd [15, 28]: below the threshold
- pKd [16, 28]: below the threshold
- pKd [17, 28]: below the threshold
- pKd [18, 28]: below the threshold
- pKd [19, 28]: below the threshold
- pKd [20, 28]: below the threshold
- pKd [21, 28]: below the threshold
- pKd [22, 28]: 3.52
- pKd [23, 28]: below the threshold
- pKd [24, 28]: below the threshold
- pKd [25, 28]: below the threshold
- pKd [26, 28]: below the threshold
